B1: Ac-[Lys(Ahx_Palm)]-T-H-[Dpa]-P-A-I-[(D)Lys]-[bhPhe]-NH2 (peptide)
peptide: Ac-K([Ahx-Palmitoyl])TH[Dip]PAI[dK][β3hF]-NH2
SMILES: CCCCCCCCCCCCCCCC(=O)NCCCCCC(=O)NCCCC[C@H](NC(C)=O)C(=O)N[C@H](C(=O)N[C@@H](Cc1c[nH]cn1)C(=O)N[C@H](C(=O)N1CCC[C@H]1C(=O)N[C@@H](C)C(=O)N[C@H](C(=O)N[C@H](CCCCN)C(=O)N[C@H](CC(N)=O)Cc1ccccc1)[C@@H](C)CC)C(c1ccccc1)c1ccccc1)[C@@H](C)O
B2: Isovaleric Acid-E-T-H-[Dpa]-P-A-I-[Lys(Ahx_Palm)]-L-NH2 (peptide)
peptide: Isovaleryl-ETH[Dip]PAIK([Ahx-Palmitoyl])L-NH2
SMILES: CCCCCCCCCCCCCCCC(=O)NCCCCCC(=O)NCCCC[C@H](NC(=O)[C@@H](NC(=O)[C@H](C)NC(=O)[C@@H]1CCCN1C(=O)[C@@H](NC(=O)[C@H](Cc1c[nH]cn1)NC(=O)[C@@H](NC(=O)[C@H](CCC(=O)O)NC(=O)CC(C)C)[C@@H](C)O)C(c1ccccc1)c1ccccc1)[C@@H](C)CC)C(=O)N[C@@H](CC(C)C)C(N)=O
B3: Isovaleric Acid-[Lys(Ahx_Palm)]-T-H-[Dpa]-P-A-I-[(D)Lys]-[bhPhe]-NH2; 2 (peptide)
peptide: Isovaleryl-K([Ahx-Palmitoyl])TH[Dip]PAI[dK][β3hF]-NH2
SMILES: CCCCCCCCCCCCCCCC(=O)NCCCCCC(=O)NCCCC[C@H](NC(=O)CC(C)C)C(=O)N[C@H](C(=O)N[C@@H](Cc1c[nH]cn1)C(=O)N[C@H](C(=O)N1CCC[C@H]1C(=O)N[C@@H](C)C(=O)N[C@H](C(=O)N[C@H](CCCCN)C(=O)N[C@H](CC(N)=O)Cc1ccccc1)[C@@H](C)CC)C(c1ccccc1)c1ccccc1)[C@@H](C)O
B4: Isovaleric Acid-[Lys(Ahx_Palm)]-T-H-[Dpa]-P-A-I-[(D)Lys]-[bhPhe]-NH2; 1 (peptide)
peptide: Isovaleryl-K([Ahx-Palmitoyl])TH[Dip]PAI[dK][β3hF]-NH2
SMILES: CCCCCCCCCCCCCCCC(=O)NCCCCCC(=O)NCCCC[C@H](NC(=O)CC(C)C)C(=O)N[C@H](C(=O)N[C@@H](Cc1c[nH]cn1)C(=O)N[C@H](C(=O)N1CCC[C@H]1C(=O)N[C@@H](C)C(=O)N[C@H](C(=O)N[C@H](CCCCN)C(=O)N[C@H](CC(N)=O)Cc1ccccc1)[C@@H](C)CC)C(c1ccccc1)c1ccccc1)[C@@H](C)O
B5: Isovaleric Acid-E-T-H-[Dpa]-P-[N-(Et)Gly]-I-[Lys(Ahx_Palm)]-[bhPhe]-NH2 (peptide)
peptide: Isovaleryl-ETH[Dip]P[N(Et)Gly]IK([Ahx-Palmitoyl])[β3hF]-NH2
B6: Isovaleric Acid-E-T-H-[Dpa]-P-A-I-[Lys(2PEG4_Palm)]-[bhPhe]-NH2 (peptide)
peptide: Isovaleryl-ETH[Dip]PAIK([PEG4-Palmitoyl])[β3hF]-NH2
SMILES: CCCCCCCCCCCCCCCC(=O)NCCOCCOCCOCCOCCC(=O)NCCCC[C@H](NC(=O)[C@@H](NC(=O)[C@H](C)NC(=O)[C@@H]1CCCN1C(=O)[C@@H](NC(=O)[C@H](Cc1c[nH]cn1)NC(=O)[C@@H](NC(=O)[C@H](CCC(=O)O)NC(=O)CC(C)C)[C@@H](C)O)C(c1ccccc1)c1ccccc1)[C@@H](C)CC)C(=O)N[C@H](CC(N)=O)Cc1ccccc1
B7: Isovaleric Acid-E-T-H-[Dpa]-P-A-[N-(isopenty1)Gly]-[Lys(Ahx_Palm)]-[bhPhe]-NH2 (peptide)
peptide: Isovaleryl-ETH[Dip]PA[N(isopentyl)Gly′]K([Ahx-Palmitoyl])[β3hF]-NH2
B8: Isovaleric Acid-E-T-H-[Dpa]-P-A-I-[Lys(Ahx_Palm)]-[N-(CH2CH2Ph)Gly]-NH2 (peptide)
peptide: Isovaleryl-ETH[Dip]PAIK([Ahx-Palmitoyl])[N‑(CH2CH2Ph)Gly]-NH2
B9: Isovaleric Acid-E-T-H-[N-(CH2CH2C(Ph)2H)Gly]-P-A-I-[Lys(Ahx_Palm)]-[bhPhe]-NH2 (peptide)
peptide: Isovaleryl-ETH[N‑(CH2CH2C(Ph)2H)Gly]PAIK([Ahx-Palmitoyl])[β3hF]-NH2

Starred links: 1 amine or outer side, 2 acyl side, 3 side chain; linkers in the order of their positions; H or OH if unused. Non-standard residues stand in square brackets, D forms with d. Groups on a side chain read outwards from the residue. Primed or numbered codes have the meaning given here. *: point of attachment. N‑(CH2CH2C(Ph)2H)Gly = N-substituted glycine carrying a 3,3-diphenylpropyl group, O=C(CN(CCC(c1ccccc1)c1ccccc1)[*:1])[*:2]; Dip = N[C@H](C(=O)O)C(c1ccccc1)c1ccccc1; N(isopentyl)Gly′ = not defined here; Palmitoyl = CCCCCCCCCCCCCCCC(=O)*; β3hF = N[C@H](CC(=O)O)Cc1ccccc1; PEG4 = NCCOCCOCCOCCOCCC(=O)O; Isovaleryl = CC(C)CC(=O)*; Ahx = NCCCCCC(=O)O Where only a bound is given, the exact number is not on record here.

One test has as its target T1, human ferroportin (SLC40A1) fused in frame with GFP, stably expressed in HEK293 cells (human, UniProt Q9NP59 1-571).
T1 sequence (looked up): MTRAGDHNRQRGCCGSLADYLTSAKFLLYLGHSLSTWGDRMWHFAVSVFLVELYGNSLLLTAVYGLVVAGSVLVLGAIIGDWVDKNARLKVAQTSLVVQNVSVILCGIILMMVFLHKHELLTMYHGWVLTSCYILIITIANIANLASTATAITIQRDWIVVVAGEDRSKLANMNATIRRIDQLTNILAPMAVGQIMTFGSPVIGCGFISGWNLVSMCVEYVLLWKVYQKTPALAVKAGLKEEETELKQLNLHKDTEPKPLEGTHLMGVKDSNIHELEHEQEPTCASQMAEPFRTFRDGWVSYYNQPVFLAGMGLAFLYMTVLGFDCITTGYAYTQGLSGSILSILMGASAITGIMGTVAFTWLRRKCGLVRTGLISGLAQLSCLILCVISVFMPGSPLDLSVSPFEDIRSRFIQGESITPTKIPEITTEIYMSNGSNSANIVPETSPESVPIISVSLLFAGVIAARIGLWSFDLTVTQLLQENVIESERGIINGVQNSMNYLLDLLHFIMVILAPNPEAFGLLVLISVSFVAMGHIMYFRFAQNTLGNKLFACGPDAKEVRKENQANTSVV
In words: cell-based or functional assay.
As for B1, the “FPN IC50” value is greater than 3000 nM. Same read-out and setting: for B2 the value was 82 nM; for B3, 654 nM. Same read-out and setting: for B4 the value was 598 nM.

The next test has as its target T1, human ferroportin (SLC40A1) fused in …. In words: cell-based or functional assay. This is another data set of the same source.
Turning to B5, the “FPN EC50” value was 65.9 nM. As to B6, the “FPN EC50” value was 32.7 nM.

Turning to B7, the “FPN EC50” value stood at 13 nM. On to B8, for which the “FPN EC50” value was 31.9 nM. As to B9, the “FPN EC50” value was greater than 3000 nM.

The values are drawn from patent publication US20240066131A1 (Protagonist Therapeutics, Inc., priority 2020, published 2024).
